Experimental data taken from patent US8889621B2, “Inhibiting binding of FGF23 to the binary FGFR-Klotho complex for the treatment of hypophosphatemia” (New York University, priority 2009, dated 2014).
“Also recorded” adds a separate entry of the source.

System: Sprague-Dawley rats
Assay: Plasma and urine phosphate in Sprague-Dawley rats after IV injection
Type: in vivo, rat
Details: IV 0.1 μg kg body weight^−1, 3 h, healthy rats
Source text: The anti-phosphaturic activity of FGF23 C-terminal peptides was examined in normal Sprague-Dawley rats and in Hyp mice, a mouse model of human X-linked hypophosphatemia (XLH) (Beck et al., “Pex/PEX Tissue Distribution and Evidence for a Deletion in the 3′ Region of the Pex Gene in X-linked Hypophosphatemic Mice,” J Clin Invest 99(6):1200-1209 (1997), Eicher et al., “Hypophosphatemia: Mouse Model for Human Familial Hypophosphatemic (Vitamin D-resistant) Rickets,” Proc Natl Acad Sci USA 73(12):4667-4671 […], Strom et al., “Pex Gene Deletions in Gy and Hyp Mice Provide Mouse Models for X-linked Hypophosphatemia,” Hum Mol Genet. 6(2):165-171 (1997), which are hereby incorporated by reference in their entirety). The animals were fed a complete, fixed formula diet containing 0.94% phosphate. Anesthetized rats (220-250 g body weight) were administered IV either FGF23^28-251 (0.1 μg kg body weight^−1) or FGF23^180-251 (0.1 μg kg body weight^−1) or vehicle. Before and 3 h after the injection, blood was drawn from the carotid artery and urine was collected through bladder catheterization. Plasma and urine chemistry of animals were analyzed using Vitros Chemistry Analyzer (Ortho-Clinical Diagnosis). 10- to 15-week old Hyp mice were fasted for 8-12 h before administering IP either FGF23^180-251 (1 mg) or FGF23^180-205 (860 μg) or vehicle. Before and 2 h, 4 h, 8 h, and 24 h after the injection, urine and serum samples were collected. Phosphate concentrations in urine and serum were determined using Phosphorus Liqui-UV Test (Stanbio Laboratory), and urine creatinine levels were measured using DetectX™ Urinary Creatinine Detection Kit (LuminosAssays).

B1: FGF23^28-251: human FGF23 (A28 to I251), bioactive full-length ligand expressed in E. coli (protein, listed as Homo sapiens)
chain: ASPLLGSSWGGLIHLYTATARNSYHLQIHKNGHVDGAPHQTIYSALMIRSEDAGFVVITGVMSRRYLCMDFRGNIFGSHYFDPENCRFQHQTLENGYDVYHSPQYHFLVSLGRAKRAFLPGMNPPPYSQFLSRRNEIPLIHFNTPIPRRHTRSAEDDSERDPLNVLKPRARMTPAPASCSQELPSAEDNSPMASDPLGVVRGGRVNTHAGGTGPEGCRPFAKFI
  excretion rate and fractional excretion of phosphate: increased
  plasma phosphate: significant decrease; also recorded: induced hypophosphatemia

B2: FGF23^180-251: 72-amino acid C-terminal tail of human FGF23 (S180 to I251), expressed in E. coli (protein, listed as Homo sapiens)
chain: SAEDDSERDPLNVLKPRARMTPAPASCSQELPSAEDNSPMASDPLGVVRGGRVNTHAGGTGPEGCRPFAKFI
  excretion rate and fractional excretion of phosphate: renal phosphate retention; also recorded: decreased
  plasma phosphate: induced hyperphosphatemia
